Data taken from doi:10.1101/2025.06.23.656378.

Test system: poly-L-lysine (PLL, 30-70 kDa, Sigma P2636)
Experiment: EMSA
Settings: 10 mM Tris pH 7.5, 100 mM KCl, 5% glycerol, 30 min at room temperature

Sequence | Kd [nM]
UUAGAAUUAGAAUUAGAAUUAGAA [rTERRA_M2 [UUAGAA]4] | 7.4
TTAGAATTAGAATTAGAATTAGAA [dTERRA_M2 [TTAGAA]4] | 34
